Laboratory results published in paper PMC8187382, “The archaeal protein SepF is essential for cell division in Haloferax volcanii” (Nature Communications, 2021).

Target: the molecule itself
Experiment: SEC; 500 µl freshly purified SepF-His on Superdex 200 10/300 GL in Buffer A (1.5 M KCl, 100 mM NaCl, 50 mM HEPES, 1 mM DTT, pH 7.5), 0.5 ml/min; gel filtration standard run under the same conditions; no protein eluted at volumes of higher oligomers

B1: SepF-His (H. volcanii SepF expressed in E. coli) (natural protein, Haloferax volcanii, UniProt D4H018 1-118, looked up)
chain: MGIMSKILGGGGSRTTEDYVELDLDDFDTARGDAGLSVHIAEIGGQQDVIAIKDAVYDGNLVIADITRHTTSDSTMEHIIDDLRQVAREVDGDIVQKGDDQIVITPTGISISRQKLNG
notes: SepF of Haloferax volcanii, encoded by hvo_0392, 118 amino acids, 12.6 kDa; sepF amplified from genomic DNA of strain H26 and cloned by FX-cloning; FX-cloning may leave extra residues at the ends; also called purified SepF; Hvo_0392
stoichiometry N: 2
